Results from patent US20260209362A1 (VIB VZW, published 2026).

Tests used:
[1] = target: T1, biotinylated recombinant mouse IL-12Rβ2 (produced in-house) (mouse, UniProt P97378 24-637, randomly biotinylated); test: ELISA, periplasmic extract on biotinylated mouse IL-12Rβ2; control streptavidin-coated blocked wells
T1 construct: also called mIL-12RB2; mouse IL-12RB2
T1 sequence: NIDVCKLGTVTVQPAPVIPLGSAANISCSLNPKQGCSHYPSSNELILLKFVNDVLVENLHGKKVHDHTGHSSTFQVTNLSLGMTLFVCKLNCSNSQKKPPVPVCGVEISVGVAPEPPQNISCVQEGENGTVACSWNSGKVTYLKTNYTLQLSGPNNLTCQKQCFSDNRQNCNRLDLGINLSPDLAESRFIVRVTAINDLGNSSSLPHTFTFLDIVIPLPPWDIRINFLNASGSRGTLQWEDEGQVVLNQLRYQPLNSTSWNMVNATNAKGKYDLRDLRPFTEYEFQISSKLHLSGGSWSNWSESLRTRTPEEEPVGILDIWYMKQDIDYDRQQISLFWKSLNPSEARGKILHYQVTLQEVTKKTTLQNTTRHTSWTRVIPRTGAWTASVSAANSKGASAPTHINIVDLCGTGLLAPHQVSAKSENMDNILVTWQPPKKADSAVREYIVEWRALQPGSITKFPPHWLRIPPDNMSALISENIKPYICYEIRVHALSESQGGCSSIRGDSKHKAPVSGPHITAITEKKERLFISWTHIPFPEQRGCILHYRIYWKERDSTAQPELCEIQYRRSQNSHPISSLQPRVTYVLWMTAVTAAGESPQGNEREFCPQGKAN

[2] = target: T2, biotinylated recombinant human IL-12Rβ2 (produced in-house) (human, UniProt Q99665 24-622, randomly biotinylated); test: ELISA, periplasmic extract on biotinylated human IL-12Rβ2; control streptavidin-coated blocked wells
T2 construct: also called hIL-12RB2; human IL-12RB2
T2 sequence: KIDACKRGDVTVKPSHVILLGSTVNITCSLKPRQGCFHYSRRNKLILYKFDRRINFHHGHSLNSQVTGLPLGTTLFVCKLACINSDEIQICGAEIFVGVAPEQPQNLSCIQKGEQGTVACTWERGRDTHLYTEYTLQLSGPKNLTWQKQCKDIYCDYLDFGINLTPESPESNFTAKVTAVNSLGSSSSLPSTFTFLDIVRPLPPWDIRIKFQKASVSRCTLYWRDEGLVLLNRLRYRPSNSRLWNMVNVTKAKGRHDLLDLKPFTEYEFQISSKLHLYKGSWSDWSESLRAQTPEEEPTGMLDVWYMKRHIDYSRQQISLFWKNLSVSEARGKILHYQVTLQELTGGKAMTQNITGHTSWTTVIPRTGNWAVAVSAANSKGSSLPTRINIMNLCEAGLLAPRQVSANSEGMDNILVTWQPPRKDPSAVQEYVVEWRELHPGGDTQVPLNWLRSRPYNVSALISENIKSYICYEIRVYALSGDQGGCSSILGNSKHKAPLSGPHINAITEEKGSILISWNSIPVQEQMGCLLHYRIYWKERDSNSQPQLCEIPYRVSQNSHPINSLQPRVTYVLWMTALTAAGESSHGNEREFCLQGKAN

[3] = target: T3, biotinylated recombinant human IL-12Rβ2 (human, UniProt Q99665 24-622, random biotinylated); test: BLI (Octet), periplasmic extract on biotinylated hIL-12Rβ2 on streptavidin tips
T3 construct: Recombinant protein produced in-house, biotinylated; also called hIL-12RB2; human IL-12RB2
T3 sequence: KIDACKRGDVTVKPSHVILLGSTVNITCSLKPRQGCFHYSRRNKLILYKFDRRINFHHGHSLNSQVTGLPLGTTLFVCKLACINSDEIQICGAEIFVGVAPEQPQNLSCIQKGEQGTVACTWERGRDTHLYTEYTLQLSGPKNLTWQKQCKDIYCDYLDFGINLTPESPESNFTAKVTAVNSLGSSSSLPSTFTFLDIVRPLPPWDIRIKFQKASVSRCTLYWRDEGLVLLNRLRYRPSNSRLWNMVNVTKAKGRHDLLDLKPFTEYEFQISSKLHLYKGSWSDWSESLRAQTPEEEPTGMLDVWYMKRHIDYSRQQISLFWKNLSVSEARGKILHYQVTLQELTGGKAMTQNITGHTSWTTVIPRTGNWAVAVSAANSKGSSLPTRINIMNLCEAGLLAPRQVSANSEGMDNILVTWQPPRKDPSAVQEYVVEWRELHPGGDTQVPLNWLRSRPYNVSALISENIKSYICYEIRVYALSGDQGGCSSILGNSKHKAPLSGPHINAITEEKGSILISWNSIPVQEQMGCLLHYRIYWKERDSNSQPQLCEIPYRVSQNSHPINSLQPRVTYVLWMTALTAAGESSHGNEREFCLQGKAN

[4] = target: T3, biotinylated recombinant human IL-12Rβ2; test: BLI (Octet), periplasmic extract on biotinylated hIL-12Rβ2 on streptavidin tips, 1:1 model
[5] = target: T3, biotinylated recombinant human IL-12Rβ2; test: ELISA, periplasmic extract on biotinylated hIL-12Rβ2, signal over control wells
[6] = target: T4, biotinylated recombinant mouse IL-12Rβ2 (mouse, UniProt P97378 24-637, random biotinylated); test: ELISA, periplasmic extract on biotinylated mIL-12Rβ2, signal over control wells
T4 construct: Recombinant protein produced in-house, biotinylated; also called mIL-12RB2; mouse IL-12RB2
T4 sequence: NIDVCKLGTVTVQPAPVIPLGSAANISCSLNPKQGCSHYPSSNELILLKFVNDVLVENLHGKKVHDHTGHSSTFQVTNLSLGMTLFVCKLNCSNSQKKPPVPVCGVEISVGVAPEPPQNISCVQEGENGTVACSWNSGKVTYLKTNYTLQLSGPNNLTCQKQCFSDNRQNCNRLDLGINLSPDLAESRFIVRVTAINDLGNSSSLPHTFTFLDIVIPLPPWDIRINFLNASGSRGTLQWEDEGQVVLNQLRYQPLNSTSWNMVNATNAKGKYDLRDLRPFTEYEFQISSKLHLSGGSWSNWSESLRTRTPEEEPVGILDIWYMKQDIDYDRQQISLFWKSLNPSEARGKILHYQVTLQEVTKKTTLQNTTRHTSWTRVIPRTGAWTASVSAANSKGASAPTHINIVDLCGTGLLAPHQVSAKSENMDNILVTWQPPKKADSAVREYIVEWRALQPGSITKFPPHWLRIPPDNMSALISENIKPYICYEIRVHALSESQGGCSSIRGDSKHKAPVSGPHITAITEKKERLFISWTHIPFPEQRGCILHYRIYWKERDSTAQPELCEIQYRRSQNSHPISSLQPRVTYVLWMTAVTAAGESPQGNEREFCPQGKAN

| Binder | ELISA binding mIL-12RB2/control [1] | ELISA binding hIL-12RB2/control [2] | Response [3] | koff [4] | ELISA binding hIL-12RB2/control [5] | ELISA binding mIL-12RB2/control [6] |
| --- | --- | --- | --- | --- | --- | --- |
| anti-IL-12Rβ2 VHH clone 2CRM28 (VHH, Tested as periplasmic extract; CDR3 group 40) VHH: QVQLQESGGGLVQPGGSLRLSCAASGRAWNEYNMGWFRQAPGKEREFVALIWWSSGNTYYADSVKGRFTISRDKVKNTVYLQMNSLKPEDTAVYYCAAGPTFNKYEYWGQGTQVTVSS | 13.5 ratio to control | 1 ratio to control | – | – | – | – |
| anti-IL-12Rβ2 VHH clone 3CAM10 (VHH, Tested as periplasmic extract; CDR3 group 25; also called 20507) VHH: QVQLQESGGGLVQAGGSLRLSCAASGRTFSDYPMAWFRQAPGKEREFVAGISNGGTAYYADSVKGRFTISRDNTRNTVYLQMNRLKVEDTAVYYCAAVHLLSNLRGADPHEADYWGQGTQVTVSS | 40.9 ratio to control | 1.14 ratio to control | – | – | – | – |
| anti-IL-12Rβ2 VHH clone 2CRM42 (VHH, Tested as periplasmic extract; CDR3 group 18; also called 20449) VHH: QVQLQESGGGLVQPGESLRLSCQASGRTFSNYRMGWFRQAPGKEREFVAGINWDGGHTYYTDSVKGRFTISRDNAKNTVYLQMNSLKPEDTAVYQCAVRVREYGSSRYEDQFDYWGQGTQVTVSS | 6.09 ratio to control | 0.942 ratio to control | – | – | – | – |
| anti-IL-12Rβ2 VHH clone 2CAM56 (VHH, Tested as periplasmic extract; CDR3 group 28; also called 20490) VHH: QVQLQESGGGEVQAGGSLRLSCVASGRTFSVYTTGWFRQAPGKERELVAGMSGTRTYYADSVKGRFTISRDNAKNTVYLQMNSLKPDDTAVYYCAERRYGGPSLVWDEYDYRGQGTQVTVSS | 5.21 ratio to control | 0.918 ratio to control | – | – | – | – |
| anti-IL-12Rβ2 VHH clone 2CAM67 (VHH, Tested as periplasmic extract; CDR3 group 28; also called 20494) VHH: QVQLQESGGGEVQAGGSLRLSCVASGRTFSVYTTGWFRQAPGKEREFVAGMSGTRTYYADSVKGRFTISRDNAKNTVYLQMNSLKPDDTAVYYCAERRYGGPSLVWDEYDYRGQGTQVTVSS | 7.74 ratio to control | 0.87 ratio to control | – | – | – | – |
| anti-IL-12Rβ2 VHH clone 20370 (VHH, not shown: small tags and cut ends, tested as periplasmic extract; also called 2CRH76) VHH: QVQLQESGGGLVQTGGSLRLSCVASGRTFNWSAMGWFRQPPGKEREVVATISGGGTSAYYADSVKGRFTISRDGAKNTLYLQMNSLKPEDTAVYYCAADRVDYRMTLTQNGNHYWGQGTQVTVSS | – | – | 0.479 | 0.00354 s⁻¹ | 4.57 ratio | 0.937 ratio |
| anti-IL-12Rβ2 VHH clone 2CRM40 (VHH, Tested as periplasmic extract; CDR3 group 24; also called 20448) VHH: QVQLQESGGGLVQTGGSLRLSCAASGRTYAMAWFRQAPGKEREFAAVIIGGDRTYYANSVKDRFTISRDNAKETVYLQMNNLKPEDTAVYYCAANRRLYNSGRGYSQSEYEYWGQGTQVTVSS | 5.86 ratio to control | 0.993 ratio to control | – | – | – | – |
| anti-IL-12Rβ2 VHH clone 2CAMS52 (VHH, Tested as periplasmic extract; CDR3 group 55; also called 20535) VHH: QVQLQESGGGLVQPGASLRLSCATSGPTLSTYAMGWFRQAPGKEREVVATISWSGGRVTYVDSVKGRFTISRDNAKNTAYLQMNRLRPDDTAVYTCAARESDYGAYDYWGQGTQVTVSS | 6.41 ratio to control | 0.969 ratio to control | – | – | – | – |
| anti-IL-12Rβ2 VHH clone 2CAM39 (VHH, Tested as periplasmic extract; CDR3 group 46; also called 20482) VHH: QVQLQESGGGLVQAGGSLRLSCAASGRTFSTYAMGWFRQAPGKEREFVAAISWSGGSTYYADSVKGRFTISRDNAKNTGYLQMNSLKPEDTAVYVCAADAEDPILYGSSWNNRRKEYDYWGQGTQVTVSS | 8.02 ratio to control | 1 ratio to control | – | – | – | – |
| anti-IL-12Rβ2 VHH clone 2CAM18 (VHH, Tested as periplasmic extract; CDR3 group 45; also called 20475) VHH: QVQLQESGGGLVQVGDSLKLSCVASGTTFSTHVMAWYRQAPGKQREWVASIDSAGTTNYKDAVKGRFTISRDNVKRTVYLQMNNLKPEDSAVYLCSIPSRNAWGQGTQVTVSS | 3.22 ratio to control | 1.51 ratio to control | – | – | – | – |
